One substance from paper doi:10.1101/2021.01.20.427433 can be followed below.

This assay deals with 6xHis-XRCC4^1-164 (C-to-A), wildtype for the SIMs (human) (UniProt Q13426). In words: SPR.

As to “polySUMO2 chains (enzymatically linked via the internal K11) (from UniProt P61956 1-95)”, the fold increase in KD against full-length XRCC4 worked out at 3 fold.
